Patent WO2014065403A1 (dated 2014)

T1: mouse CD40 (mouse, UniProt P27512 20-289)
T1 construct: Stably expressed on CHO cells (pCXN3 vector)
T1 sequence: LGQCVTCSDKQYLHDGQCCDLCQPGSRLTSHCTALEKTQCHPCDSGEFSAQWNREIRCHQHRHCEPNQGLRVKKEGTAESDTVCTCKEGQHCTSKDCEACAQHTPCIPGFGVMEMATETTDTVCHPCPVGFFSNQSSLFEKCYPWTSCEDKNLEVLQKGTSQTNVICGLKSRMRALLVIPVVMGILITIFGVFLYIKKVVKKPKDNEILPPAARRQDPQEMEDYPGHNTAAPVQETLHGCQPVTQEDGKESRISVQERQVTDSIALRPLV

T2: cynomolgus monkey CD40 (cynomolgus monkey, UniProt P25942 21-277 (human entry))
T2 construct: Stably expressed on CHO cells (pCXN3 vector); also called cynomolgus CD40
T2 chain: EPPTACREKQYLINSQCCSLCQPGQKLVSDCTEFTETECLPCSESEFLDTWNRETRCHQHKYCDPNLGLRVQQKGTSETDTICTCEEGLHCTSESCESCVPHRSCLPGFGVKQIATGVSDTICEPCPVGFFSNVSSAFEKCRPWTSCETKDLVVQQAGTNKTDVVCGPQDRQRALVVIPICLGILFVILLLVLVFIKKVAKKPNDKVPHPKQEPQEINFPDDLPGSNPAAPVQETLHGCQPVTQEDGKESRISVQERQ


Experiments:
[1] = target: T3, partial length CD40 D2 (expressed from the 62nd amino acid of CD40) (human, UniProt P25942 62-277); assay: FACS at 1 ug/mL on 293T cells transiently expressing partial length CD40
T3 construct: not shown: VSV-G tag added at the C-terminus

[2] = target: T4, partial length CD40 from CD40 amino acid residue 78 onward (human, UniProt P25942 78-277); assay: FACS on 293T cells transiently expressing partial length CD40
T4 construct: also called D2B1 (by its position in the series D1, D1B2, D2, D2B1, D3, D4); not shown: VSV-G tag added at the C-terminus

[3] = target: T5, partial length CD40 D3 (expressed from the 105th amino acid of CD40) (human, UniProt P25942 105-277); assay: FACS at 1 ug/mL on 293T cells transiently expressing partial length CD40
T5 construct: not shown: VSV-G tag added at the C-terminus

[4] = target: T6, partial length CD40 from CD40 amino acid residue 146 onward (human, UniProt P25942 146-277); assay: FACS on 293T cells transiently expressing partial length CD40
T6 construct: also called D4 (by its position in the series D1, D1B2, D2, D2B1, D3, D4); not shown: VSV-G tag added at the C-terminus

mouse CD40 = target: T1, mouse CD40; assay: FACS on CHO cells expressing mouse CD40
cynomolgus monkey CD40 = target: T2, cynomolgus monkey CD40; assay: FACS on CHO cells expressing cynomolgus monkey CD40

Row | binding result [1] | binding result [2] | binding result [3] | binding result [4] | binding result (mouse CD40) | binding result (cynomolgus monkey CD40) | Binder
1 | binds | no binding (tested: 1 μg/mL) | – | – | – | – | antibody of SEQ ID NOs: 28 and 53 (antibody, V domains shown, clone name not tied; The text speaks of the mature part of these entries) VH: EVQLQQSGAELVKPGASVKLSCTGSGFNIKDTYMHWVKQRPEQGLEWIGRIDPANGNTKFDPKFQGKATITADTSTNTAYLQVSSLTSEDTAVYYCVRYGYDGYFDYWGQGTTLTVSS VL: QIVLTQSPAIMSASPGEKVTMTCSVSSSISYMYWYQQKPGTSPKRWIYDTSKLASGVPARFSGSGSGTSYSLTISSMEAEDAATYYCHQRSSYPLTFGAGTKLELK
2 | – | – | binds | no binding (tested: 1 μg/mL) | – | – | antibody of SEQ ID NOs: 8 and 33 (antibody, V domains shown, clone name not tied; The text speaks of the mature part of these entries) VH: EVQLQQSGPELVKPGASVKMSCKASGYTFTNYVMHWVKQKPGQGLEWIGYVNPYNDDTNYNERFKGKATLTSDKSSSTAYMELSSLTSEDSAVYYCARELTGTYWGQGTLVTVSA VL: DIVMTQAAPSVPVTPGESVSISCRSSKSLLHSNGNTYLYWFLQRPGQSPQLLISRISNLASGVPDRFSGSGSGTAFTLRISRVEAEDVGVYYCMQHVEYPFTFGSGTKLEIK
3 | – | – | binds | no binding (tested: 1 μg/mL) | – | – | antibody of SEQ ID NOs: 16 and 41 (antibody, V domains shown, clone name not tied; The text speaks of the mature part of these entries) VH: EVQLQQSGPELVKPGASVKMSCKASGYTFINYVIHWVKQKPGQGLEWIGYINPYNDDSNYNEKFKGKATLTSDKSSSTAYMELRSLTSEDSAIYYCARDLIGSYWGQGTTLTVSS VL: DIVMTQAAPSVIVTPGESVSISCRSSKSLLHSNGNTYFYWFLQRPGQSPQLLISRISNLASGVPDRFSGSGSGTAFTLRISRVEAEDVGIYYCMQHLEYPFTFGAGTKVELK
4 | binds | no binding (tested: 1 μg/mL) | – | – | – | – | antibody of SEQ ID NOs: 12 and 37 (antibody, V domains shown, clone name not tied; The text speaks of the mature part of these entries) VH: EVQLQHSGAELVKPGSSVKLSCTASDFNIKDAYMHWVKQRPEQGLEWIGRIDPANGKTKYDPKFQDKATITADTSSNTAYLQLNSLTSEDTAVYYCPRNYYGSRYGYFDVWGAGTTVTVSS VL: QIVLTQSPAILSASPGEKVTITCSASSSVDYMFWFQQKPGTSPKLWIYTTSNLASGVPTRFSGSGSGTSYSLTISRMEAEDAATYYCHQRSSYPLTFGAGTKLELK
5 | binds | no binding (tested: 1 μg/mL) | – | – | – | – | antibody of SEQ ID NOs: 13 and 38 (antibody, V domains shown, clone name not tied; The text speaks of the mature part of these entries) VH: EVQLQQSGAELVKPGASVKLSCTASGFNIKDSYIHWVKQRPEQGLEWIGRIDPANGNTKYDPKFQGKATITSDTSSSTAYLQLTSLTSEDTAVYYCPRNYYGSTYGYFDVWGAGTTVTVSS VL: QIVLTQSPAIMSASPGEKVTITCSASSSVSNMHWFQQKAGTSPKLWIYRTSNLASGVPARFSGSGSGTSYSLTISRMEAEDAATYYCQQGSSYPLTFGAGTKLELK
6 | – | – | binds | no binding (tested: 1 μg/mL) | no binding | binds | mouse antibody PPAT-071-04 (antibody, V domains shown, Mouse monoclonal IgG from ascites; also called hybridoma NITE BP-01435) VH: EVQLQQSGPELVKPGASMKISCKASGYSFADYTMNWVKQSHGKKLEWIGLINPYNGGTSYNQKFKDKATLTVDKSSSTAYMELLSLTTEDSAVYYCAEGVNNFADWGQGTTLTVSG VL: DIVLTQSPTSLAVFLGQRATISCRASKSVSTSGYSYMHWYQQKPGQSPKPLIYLASNLESGVPARFSGSGSGTDFTLNIHPVEEEDAATYYCQHSRELPRTFGGGTKLEIK
7 | – | – | binds | no binding (tested: 1 μg/mL) | – | – | antibody of SEQ ID NOs: 15 and 40 (antibody, V domains shown, clone name not tied; The text speaks of the mature part of these entries) VH: QVQLQQSGAELARPGASLKMSCKASGYTFTSYTIHWIKQRPGQGLEWIGYINPSSGYTNDNQKFKDKATLTADKSSTTAYMQLSSLTSEDSAVYYCARLGRPFDYWGQGTTLTVSS VL: EIVLTQSPALMAASPGEKVTITCSVSSSISSSNLHWYQQKSETSPKPWIYGTSNLASGVPVRFSGSGSGTSYSLTISSMEAEDAATYYCQQWSTYPLTFGSGTKLEIK
